Where no end group is shown, it is not given here. [ ]: non-standard residue; d: D form. sY = N[C@@H](Cc1ccc(OS(=O)(=O)O)cc1)C(=O)O
B3: Y1 scFv (human single-chain Fv antibody fragment Y1) (scFv)
scFv: EVQLVESGGGVVRPGGSLRLSCAASGFTFDDYGMSWVRQAPGKGLEWVSGINWNGGSTGYADSVKGRFTISRDNAKNSLYLQMNSLRAEDTAVYYCARMRAPVIWGQGTLVTVSRGGGGSGGGGSGGGGSSELTQDPAVSVALGQTVRITCQGDSLRSYYASWYQQKPGQAPVLVIYGKNNRPSGIPDRFSGSSSGNTASLTITGAQAEDEADYYCNSRDSSGNHVVFGGGTKLTVLGAAAEQKLISEEDLNGAA
notes: Clone from the Nissim I phage display library; Used biotinylated in Western blots; detected with rabbit anti-scFv or anti-VL in FACS and ELISA; also called scFv Y1; scFv-Y1

What was measured:
[1] = biological target: T1, PSGL-1 (P-selectin glycoprotein ligand-1, CD162) on KG-1 cells or in KG-1 membrane preparations (human, UniProt Q14242 42-412, sulfated tyrosines in the N-terminal region); assay: radioreceptor competition on KG-1 cells, tracer 125I-Y1-IgG 2 ng/tube
T1 construct: whole, on cells; entries on KG-1 cells, lysates and membrane fractions are written against this molecule; also called KG-1细胞上Y1配体
T1 sequence (looked up): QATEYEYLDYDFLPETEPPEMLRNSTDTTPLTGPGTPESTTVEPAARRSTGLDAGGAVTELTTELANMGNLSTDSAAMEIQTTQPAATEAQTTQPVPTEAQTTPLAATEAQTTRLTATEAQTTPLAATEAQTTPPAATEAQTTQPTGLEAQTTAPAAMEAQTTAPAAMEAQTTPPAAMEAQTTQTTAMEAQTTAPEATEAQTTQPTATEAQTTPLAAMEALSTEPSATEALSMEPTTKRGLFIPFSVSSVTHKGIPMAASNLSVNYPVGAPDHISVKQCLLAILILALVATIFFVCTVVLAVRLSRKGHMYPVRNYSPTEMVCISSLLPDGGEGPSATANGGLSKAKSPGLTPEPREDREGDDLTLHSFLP

[2] = biological target: T1, PSGL-1 (P-selectin glycoprotein …); assay: second radioreceptor competition on KG-1 cells, labelled CONY1
[3] = biological target: T1, PSGL-1 (P-selectin glycoprotein …); assay: radioreceptor assay, ELISA and FACS
[4] = biological target: B3; assay: competition ELISA, Y1 scFv on glycocalicin, peptide 1, 10, 100 μM
[5] = biological target: T2, human lumican from plasma (human, UniProt P51884 19-338); assay: binding to human plasma proteins
T2 construct: also called H P-配体2
T2 sequence (looked up): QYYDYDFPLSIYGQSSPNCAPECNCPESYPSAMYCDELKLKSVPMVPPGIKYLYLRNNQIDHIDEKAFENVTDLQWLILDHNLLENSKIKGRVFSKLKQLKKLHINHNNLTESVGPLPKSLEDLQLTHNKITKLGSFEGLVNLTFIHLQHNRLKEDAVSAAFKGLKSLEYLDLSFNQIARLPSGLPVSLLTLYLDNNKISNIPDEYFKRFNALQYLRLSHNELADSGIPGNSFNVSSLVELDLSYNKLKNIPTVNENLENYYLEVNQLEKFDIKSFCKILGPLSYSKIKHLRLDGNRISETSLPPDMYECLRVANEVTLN

[6] = biological target: T1, PSGL-1 (P-selectin glycoprotein …); assay: Western blot
[7] = biological target: T1, PSGL-1 (P-selectin glycoprotein …); assay: FACS on KG-1 cells

B1: S-S Y1 dimer (disulfide-bridged dimer of Y1 scFv with a cysteine added at the carboxy terminus) (other)
chain: EVQLVESGGGVVRPGGSLRLSCAASGFTFDDYGMSWVRQAPGKGLEWVSGINWNGGSTGYADSVKGRFTISRDNAKNSLYLQMNSLRAEDTAVYYCARMRAPVIWGQGTLVTVSRGGGGSGGGGSGGGGSSELTQDPAVSVALGQTVRITCQGDSLRSYYASWYQQKPGQAPVLVIYGKNNRPSGIPDRFSGSSSGNTASLTITGAQAEDEADYYCNSRDSSGNHVVFGGGTKLTVLGAAAEQKLISEEDLNGAAC
For B1, the Kd [1] was 40 nM, the “fold higher avidity than CONY1” value [1] was 30 fold and the “fold lower avidity than the whole Y1 antibody” value [1] was 2 fold. For the same binder, the Kd [2] was 50 nM, the “fold higher affinity than CONY1” value [2] was 20 fold and the “fold binding over Y1 scFv monomer” value [3] was no less than 20 fold.

VRPEHPAETE[sY]ESL[sY]PEDDL [F-Y*Y*, sulfated peptide from the fibrinogen γ prime chain]: no binding (tested: 100μM) [4].

B2: Y1-IgG (full-size IgG1 lambda antibody built from the Y1 Fv) (antibody)
chain 1: EVQLVESGGGVVRPGGSLRLSCAASGFTFDDYGMSWVRQAPGKGLEWVSGINWNGGSTGYADSVKGRFTISRDNAKNSLYLQMNSLRAEDTAVYYCARMRAPVIWGQGTLVTVSR
chain 2: SELTQDPAVSVALGQTVRITCQGDSLRSYYASWYQQKPGQAPVLVIYGKNNRPSGIPDRFSGSSSGNTASLTITGAQAEDEADYYCNSRDSSGNHVVFGGGTKLTVLG
Binder B2 has a Kd [1] of roughly 20 nM.

VRPEHPAETEYESLYPEDDL [F-YY, non-sulfated peptide from the fibrinogen γ prime chain]: no binding (tested: 100μM) [4].

B3: binds [5]; binds [6].

B4: Y17 scFv (scFv)
scFv: EVQLVESGGGVVRPGGSLRLSCAASGFTFDDYGMSWVRQAPGKGLEWVSGINWNGGSTGYADSVKGRFTISRDNAKNSLYLQMNSLRAEDTAVYYCARLTHPYFWGQGTLVTVSRGGGGSGGGGSGGGGSSELTQDPAVSVALGQTVRITCQGDSLRSYYASWYQQKPGQAPVLVIYGKNNRPSGIPDRFSGSSSGNTASLTITGAQAEDEADYYCNSRDSSGNHVVFGGGTKLTVLGAAAEQKLISEEDLNGAA
notes: Second scFv clone selected on platelets
B4: binds [7].

B5: CONY1, Y1 scFv monomer in which the myc tag is deleted or replaced by Lys-Ala-Lys (KAK) (scFv)
scFv: EVQLVESGGGVVRPGGSLRLSCAASGFTFDDYGMSWVRQAPGKGLEWVSGINWNGGSTGYADSVKGRFTISRDNAKNSLYLQMNSLRAEDTAVYYCARMRAPVIWGQGTLVTVSRGGGGSGGGGSGGGGSSELTQDPAVSVALGQTVRITCQGDSLRSYYASWYQQKPGQAPVLVIYGKNNRPSGIPDRFSGSSSGNTASLTITGAQAEDEADYYCNSRDSSGNHVVFGGGTKLTVLG
notes: also called CONY1 scFv; Y1-kak
Work on B5 yielded a Kd [2] of roughly 1000 nM.
